Measurements from paper PMC3485183.

Key:
[1] = target: HA-tagged RCAN1-3KR mutant (human); experiment: co-IP; HEK293 cells co-transfected with Flag-calcineurin and HA-tagged wild-type RCAN1 or RCAN1-3KR; IP with HA antibody, blot with Flag antibody
Flag-calcineurin = Flag-calcineurin (UniProt Q08209)
[2] = target: HA-tagged wild-type calcineurin A (UniProt Q08209); experiment: co-IP; HEK293 cells co-transfected with HA-calcineurin and Myc-RCAN1, without or with T7-NEDD8, NEDD8-ΔGG, or after NEDD8 or control siRNA (60 nM); lysis in 1% NP40 buffer; IP with HA antibody, blot with Myc antibody

Sequence of Myc-RCAN1 (P53805 whole entry): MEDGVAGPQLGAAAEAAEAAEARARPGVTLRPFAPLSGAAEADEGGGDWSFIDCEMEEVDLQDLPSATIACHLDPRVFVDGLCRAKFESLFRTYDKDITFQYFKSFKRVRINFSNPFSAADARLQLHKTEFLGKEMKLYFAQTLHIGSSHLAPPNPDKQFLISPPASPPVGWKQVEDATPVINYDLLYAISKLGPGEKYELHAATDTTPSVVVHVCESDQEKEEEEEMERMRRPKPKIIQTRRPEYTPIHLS

With “Flag-calcineurin (from UniProt Q08209 1-521) (enzyme)” the reduction of binding against wild-type RCAN1 [1] was 40%.
“HA-tagged human wild-type RCAN1 (RCAN1-1S) (natural protein)” was tested, and the NFAT-luciferase reporter activity in HEK293 cells treated with ionomycin, inhibition against reporter alone (Flag-calcineurin) was greater than 60%.
Myc-RCAN1 (natural protein) was tested, and the increase of binding with co-expressed wild-type NEDD8, against no NEDD8 [2] was 30%.
